Key:
[1] = molecular target: BTV-15-VP5-Δ43-Nhis, unlabelled (Bluetongue virus serotype 15); experiment: crystal structure; low pH crystal form: 1.0 M sodium chloride, 0.1 M Tris (pH 6.0), 20 °C; space group H3; native protein
[2] = molecular target: BTV-15-VP5-Δ43-Nhis, seleno-methionyl-derivatised (Bluetongue virus serotype 15); experiment: crystal structure; high pH crystal form: 0.09 M sodium formate, 6.6% PGA-LM, 0.1 M Tris (pH 9.0), 20 °C; space group P1, nine subunits in the asymmetric unit; Se-Met protein

Row | Substance | stoichiometry N [1] | stoichiometry N [2]
1 | BTV-15-VP5-Δ43-Nhis, unlabelled (domain or fragment) | 3 | –
2 | BTV-15-VP5-Δ43-Nhis, seleno-methionyl-derivatised (domain or fragment) | – | 3

— publication PMC11335306
